Source: paper PMC5374107

Molecular target: ICAM-1D1D5-Fc::PFD1235w head structure complex (human | Plasmodium falciparum)
Test: SPR; Biacore T-200; dual binding: ICAM-1D1D5 Fc immobilized (1,800, 2,100 or 1,500 RU) on Protein A CM5 chip, head structure injected at 250 nM for 240 s, then EPCR injected, two-fold dilutions 250 nM to 16 nM, 30 µL/min, 240 s association, 720 s dissociation; 10 mM HEPES pH 8.0, 300 mM NaCl, 0.05% Tween-20; one-site kinetic model

B1: Recombinant His-tagged EPCR (receptor)
chain: SQDASDGLQRLHMLQISYFRDPYHVWYQGNASLGGHLTHVLEGPDTNTTIIQLQPLQEPESWARTQSGLQSYLLQFHGLVRLVHQERTLAFPLTIRCFLGCELPPEGSRAHVFFEVAVNGSSFVSFRPERALWQADTQVTSGVVTFTLQQLNAYNRTRYELREFLEDTCVQYVQKHISAENTKGSQTSRSYTSLVLGVLVGSFIIAGVAVGIFLCTGGRRC
modifications: biotin (biotinylated by BirA)
With B1 the Kd was 271 nM, the koff was 0.00103 s⁻¹ and the kon was 3600 M⁻¹ s⁻¹.
